{"source": "patent US20090081211A1", "about": "(Genentech, published 2009)", "binders": {"B1": {"name": "antibody S77 (YW144.2.43.S77), format in the assay not stated (antibody, V domains shown)", "VH": "EVQLVESGGGLVQPGGSLRLSCAASGFSFTSSSVSWVRQAPGKGLEWVGLIYPYNGFNYYADSVKGRFTISADTSKNTAYLQMNSLRAEDTAVYYCARNALYGSGGYYAMDYWGQGTLVTVSS", "VL": "DIQMTQSPSSLSASVGDRVTITCRASQDVSTAVAWYQQKPGKAPKLLIYSASFLYSGVPSRFSGSGSGTDFTLTISSLQPEDFATYYCQQSYATLPTFEQGTKVEIK", "notes": "also called anti C3b antibody S77"}}, "target": "T1, human complement C3 (human, UniProt P01024 23-1663)", "T1 construct": "also called native C3; pro-molecule C3", "T1 sequence (P01024 other isoform, or with tags, fused parts or gaps limits assumed)": "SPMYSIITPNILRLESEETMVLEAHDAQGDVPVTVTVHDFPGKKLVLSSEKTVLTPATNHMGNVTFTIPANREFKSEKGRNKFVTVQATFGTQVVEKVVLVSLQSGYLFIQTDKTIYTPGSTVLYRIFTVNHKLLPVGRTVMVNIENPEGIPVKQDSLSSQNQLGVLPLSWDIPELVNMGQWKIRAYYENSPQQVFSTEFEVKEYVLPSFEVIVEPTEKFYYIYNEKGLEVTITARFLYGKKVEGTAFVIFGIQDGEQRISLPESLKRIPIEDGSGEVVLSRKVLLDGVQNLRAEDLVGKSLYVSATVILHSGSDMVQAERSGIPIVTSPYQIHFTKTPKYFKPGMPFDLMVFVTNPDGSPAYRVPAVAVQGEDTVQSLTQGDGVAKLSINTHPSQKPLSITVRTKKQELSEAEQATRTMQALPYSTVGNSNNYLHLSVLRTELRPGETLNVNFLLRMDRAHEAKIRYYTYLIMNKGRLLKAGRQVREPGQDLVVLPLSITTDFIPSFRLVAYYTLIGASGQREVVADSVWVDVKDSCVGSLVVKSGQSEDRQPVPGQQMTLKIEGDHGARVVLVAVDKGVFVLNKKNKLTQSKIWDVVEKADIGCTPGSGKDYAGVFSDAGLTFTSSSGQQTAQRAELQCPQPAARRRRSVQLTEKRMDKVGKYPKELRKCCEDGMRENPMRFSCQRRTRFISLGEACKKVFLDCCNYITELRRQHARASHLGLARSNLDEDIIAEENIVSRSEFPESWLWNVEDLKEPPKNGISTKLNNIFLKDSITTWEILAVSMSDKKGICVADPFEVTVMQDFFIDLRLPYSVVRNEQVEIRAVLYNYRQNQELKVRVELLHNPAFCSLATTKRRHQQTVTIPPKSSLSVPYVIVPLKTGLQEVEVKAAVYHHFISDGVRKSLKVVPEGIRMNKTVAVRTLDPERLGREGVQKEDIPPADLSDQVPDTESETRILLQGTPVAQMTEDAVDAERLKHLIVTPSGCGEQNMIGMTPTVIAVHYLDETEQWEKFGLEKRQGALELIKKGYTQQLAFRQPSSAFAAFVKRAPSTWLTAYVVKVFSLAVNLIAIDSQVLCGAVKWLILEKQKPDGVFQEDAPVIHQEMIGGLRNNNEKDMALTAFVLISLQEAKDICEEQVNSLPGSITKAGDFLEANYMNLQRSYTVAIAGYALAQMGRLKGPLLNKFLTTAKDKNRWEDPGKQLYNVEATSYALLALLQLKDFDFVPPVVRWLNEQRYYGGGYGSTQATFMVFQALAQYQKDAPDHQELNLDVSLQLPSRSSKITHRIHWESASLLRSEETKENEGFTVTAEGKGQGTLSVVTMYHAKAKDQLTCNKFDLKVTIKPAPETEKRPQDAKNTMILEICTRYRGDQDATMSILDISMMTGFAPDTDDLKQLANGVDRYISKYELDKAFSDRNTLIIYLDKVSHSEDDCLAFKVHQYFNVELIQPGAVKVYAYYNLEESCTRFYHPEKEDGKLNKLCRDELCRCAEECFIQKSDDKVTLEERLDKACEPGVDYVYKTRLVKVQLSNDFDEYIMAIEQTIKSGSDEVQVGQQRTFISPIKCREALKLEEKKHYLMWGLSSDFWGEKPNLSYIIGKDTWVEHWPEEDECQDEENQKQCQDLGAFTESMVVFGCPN", "experiment": "ELISA on purified C3b or C3 (FIG. 8)", "description": "In another experiment, purified C3b or C3 were captured in microtiter plates using a polyclonal C3 antibody. Binding of S77 (A) or a polyclonal anti C3 antibody (B) to captured C3b or C3 was determined using a secondary HRPO-conjugated antibody. Color was developed with TMB (KPL), stopped in 2N H₂SO₄ and absorbance read at 450 nm.\nC3b ELISA for testing specificity of anti C3b antibody S77. Twenty-five μL of capture antibody (YW144.2.45.S77 Affinity Matured xC3/C3b (Genentech) 2 μg/ml) diluted in PBS was added to wells of a microtitre plate and incubated overnight at 4° C. The plate was washed 3× with wash buffer (PBS/0.05% Tween 20 (20× stock; Media Prep; Cat. A3355)). Fifty μL of block buffer was added to the wells and the plate incubated for 1-3 hours with gentle agitation (room temperature) and washed 3× with wash buffer. […] OD reading of plate was taken (450/630 nm). […]", "data": [{"binder": "B1", "values": [{"measurement": "binding result", "result": "no binding"}]}]}
